Test results: PMC13544220, “Glycemic and bodyweight effects of GIPR coding variation reflect differences in surface expression and intrinsic functional impairment” (Science Advances, 2026)
Residue numbers refer to the chain shown, from its start. Names may count otherwise.

Legend:
[1] = system: wild-type and variant SNAP-GIPR in Gipr-/- mouse islets; assay: Glucagon secretion from Gipr-/- mouse islets transduced with GIPR adenoviruses; type: cell-based; conditions: Fig S6C, Gipr-/- mouse islets
Method: (§1) Isolated islets used for insulin secretion assays were treated in 1.5-ml microcentrifuge tubes. Eight-ten islets were used per well with two-three technical replicates per condition. […] At the end of the treatment, supernatants containing the secreted insulin or glucagon were collected, centrifuged at 1000g for 5 min, and transferred to fresh tubes. […] The lysates were sonicated 3× for 10 s in a water bath and centrifuged at 10,000g for 10 min, and the supernatants were collected. The samples were stored at −20°C until the insulin or glucagon concentrations were determined using an Insulin Ultra-Sensitive HTRF Assay kit (62IN2PEG, Revvity) or an HTRF Glucagon Detection Kit (62CGLPEG, Revvity) respectively, according to the manufacturer’s instructions. GraphPad Prism 9.0 was used for the generation of the standard curve and sample concentration extrapolation. The total insulin or glucagon content was calculated by adding the secreted insulin to the insulin content of the lysates, and secretion was reported as the percentage release of total. The percent secretion of islets treated with agonist was normalized to that of islets treated with vehicle and reported as a fold change.

[2] = system: wild-type and variant SNAP-GIPR in Gipr-/- mouse islets; assay: Insulin secretion from Gipr-/- mouse islets transduced with GIPR adenoviruses; type: cell-based; conditions: Fig 6D, Gipr-/- mouse islets
Method: as §1

[3] = system: wild-type and variant SNAP-GIPR in wild-type mouse islets; assay: Insulin secretion from wild-type mouse islets transduced with GIPR adenoviruses; type: cell-based; conditions: Fig 6F
Method: as §1, with “The samples were stored at −20°C until the insulin or glucagon concentrations were determined using an Insulin Ultra-Sensitive HTRF Assay kit (62IN2PEG, Revvity) or an HTRF Glucagon Detection Kit (62CGLPEG, Revvity) respectively, according to the manufacturer’s instructions.” left out

[4] = system: wild-type and variant SNAP-GIPR; assay: Single-concentration GIP cAMP response by HTRF in INS-1 cells; type: cell-based, human; conditions: Fig S3E, mean
Method: All variants were tested in parallel on each occasion to control for transfection efficiency differences between experiments.

[5] = system: wild-type and variant SNAP-GIPR; assay: Constitutive and agonist-mediated internalization, reversible SNAP-tag labelling, INS-1 cells; type: cell-based, human; parameters: key to Internalisation, GIP-only / Internalisation, Vehicle / Internalisation, +GIP: % internalization: residual fluorescence after Mesna vs pre-Mesna; conditions: Mean; for +GIP internalisation (100 nM) / GIP-specific internalisation (100 nM) / Constitutive internalisation (100 nM): Fig 4G; for +GIP internalisation (100 nM) / GIP-specific internalisation (100 nM): GIP 100 nM; for Internalisation, +GIP / Internalisation, GIP-only / Internalisation, Vehicle: Fig S4C, INS-1
Outline: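 Percentage internalization is read as the fraction of specific SNAP fluorescence that survives Mesna stripping, compared with the image taken before Mesna. Wells are imaged in TNE buffer at pH 8.6 and again after 10 min.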

[6] = system: wild-type and variant SNAP-GIPR; assay: Surface SNAP-GIPR expression (SNAP-tag labelling) in AD293 cells; type: cell-based, human; conditions: for AD293 Surface: Fig S3E, mean; for Surface SNAP-GIPR expression: sheet Fig 1C;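 on all read-outs here: scaled to the experimental average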
Outline: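 Read-out: whole-cell fluorescence of surface-only SNAP label (Alexa Fluor 647, 500 nM, 10 min, RT), wide-field 20X, several FOVs per well. Flat-field corrected, phase-contrast masked, nontransfected-well signal subtracted; normalized to experiment mean or wild-type.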

[7] = column repeated, paired with cAMP 100 nM

B1: R190Q (protein)
chain: RAETGSKGQTAGELYQRWERYRRECQETLAAAEPPSGLACNGSFDMYVCWDYAAPNATARASCPWYLPWHHHVAAGFVLRQCGSDGQWGLWRDHTQCENPEKNEAFLDQRLILERLQVMYTVGYSLSLATLLLALLILSLFRRLHCTRNYIHINLFTSFMLRAAAILSQDRLLPRPGPYLGDQALALWNQALAACRTAQIVTQYCVGANYTWLLVEGVYLHSLLVLVGGSEEGHFRYYLLLGWGAPALFVIPWVIVRYLYENTQCWERNEVKAIWWIIRTPILMTILINFLIFIRILGILLSKLRTRQMRCRDYRLRLARSTLTLVPLLGVHEVVFAPVTEEQARGALRFAKLGFEIFLSSFQGFLVSVLYCFINKEVQSEIRRGWHHCRLRRSLGEEQRQLPERAFRALPSGSGPGEVPTSRGLSSGTLPGPGNEASRELESYC
modifications: left off: SNAP-tag, end not stated, kept
- Glucagon secretion, ratio G0.5 + GIP / G0.5 ([1]; replicate 1): 0.4628
- Glucagon secretion, ratio G0.5 + GIP / G0.5 ([1]; replicate 2): 1.4505
- Glucagon secretion, ratio G0.5 + GIP / G0.5 ([1]; replicate 3): 0.8994
- Glucagon secretion, ratio G0.5 + GIP / G0.5 ([1]; replicate 4): 1.147
- Insulin secretion, ratio G11 + GIP / G11 ([2]; replicate 1): 0.6189
- Insulin secretion, ratio G11 + GIP / G11 ([2]; replicate 2): 1.413
- Insulin secretion, ratio G11 + GIP / G11 ([2]; replicate 3): 1.022
- Insulin secretion, ratio G11 + GIP / G11 ([2]; replicate 4): 0.3777
- Insulin secretion, ratio G11 + GIP / G11 ([3]; replicate 1): 1.037
- Insulin secretion, ratio G11 + GIP / G11 ([3]; replicate 2): 0.9818
- Insulin secretion, ratio G11 + GIP / G11 ([3]; replicate 3): 1.417
- Insulin secretion, ratio G11 + GIP / G11 ([3]; replicate 4): 0.8398
- Insulin secretion, ratio G11 + GIP / G11 ([3]; replicate 5): 1.788
- INS-1 cAMP (100 nM) [4]: -0.04979
- +GIP internalisation (100 nM) [5]: 0.2705
- GIP-specific internalisation (100 nM) [5]: 0.0143
- Constitutive internalisation (100 nM) [5]: 0.2562
- Internalisation, +GIP [5]: 45.6067
- Internalisation, GIP-only [5]: 2.692
- Internalisation, Vehicle [5]: 42.915
- AD293 Surface [6, 7]: 0.3804
- AD293 Surface ([6]; paired with cAMP 100 pM): 0.3804
- Surface SNAP-GIPR expression ([6]; replicate 1): 0.4051
- Surface SNAP-GIPR expression ([6]; replicate 2): 0.3209
- Surface SNAP-GIPR expression ([6]; replicate 3): 0.5539
- Surface SNAP-GIPR expression ([6]; replicate 4): 0.3598
- Surface SNAP-GIPR expression ([6]; replicate 5): 0.3596
- Surface SNAP-GIPR expression ([6]; replicate 6): 0.3496
- Surface SNAP-GIPR expression ([6]; replicate 7): 0.6994
- Surface SNAP-GIPR expression ([6]; replicate 8): 0.559
- Surface SNAP-GIPR expression ([6]; replicate 9): 0.4541
- Surface SNAP-GIPR expression ([6]; replicate 10): 0.3587
- Surface SNAP-GIPR expression ([6]; replicate 11): 0.3825
- Surface SNAP-GIPR expression ([6]; replicate 12): 0.3815
- Surface SNAP-GIPR expression ([6]; replicate 13): 0.0633
- Surface SNAP-GIPR expression ([6]; replicate 14): 0.2489
- Surface SNAP-GIPR expression ([6]; replicate 15): 0.3401
- Surface SNAP-GIPR expression ([6]; replicate 16): 0.3428
- Surface SNAP-GIPR expression ([6]; replicate 17): 0.3498
- Surface SNAP-GIPR expression ([6]; replicate 18): 0.3062
- Surface SNAP-GIPR expression ([6]; replicate 19): 0.4941
- Surface SNAP-GIPR expression ([6]; replicate 20): 0.4147
- Surface SNAP-GIPR expression ([6]; replicate 21): 0.448
- Surface SNAP-GIPR expression ([6]; replicate 22): 0.3466
- Surface SNAP-GIPR expression ([6]; replicate 23): 0.3211
- Surface SNAP-GIPR expression ([6]; replicate 24): 0.3185
- Surface SNAP-GIPR expression ([6]; replicate 25): 0.3831
- Surface SNAP-GIPR expression ([6]; replicate 26): 0.4894
- Surface SNAP-GIPR expression ([6]; replicate 27): 0.2936
- Surface SNAP-GIPR expression ([6]; replicate 28): 0.2968
- Surface SNAP-GIPR expression ([6]; replicate 29): 0.3488
- Surface SNAP-GIPR expression ([6]; replicate 30): 0.3484
- Surface SNAP-GIPR expression ([6]; replicate 31): 0.4442
- Surface SNAP-GIPR expression ([6]; replicate 32): 0.3528
- Surface SNAP-GIPR expression ([6]; replicate 33): 0.3442
- Surface SNAP-GIPR expression ([6]; replicate 34): 0.4073
- Surface SNAP-GIPR expression ([6]; replicate 35): 0.5179
- Surface SNAP-GIPR expression ([6]; replicate 36): 0.2819
- Surface SNAP-GIPR expression ([6]; replicate 37): 0.3273
- Surface SNAP-GIPR expression ([6]; replicate 38): 0.3893
- Surface SNAP-GIPR expression ([6]; replicate 39): 0.3839
- Surface SNAP-GIPR expression ([6]; replicate 40): 0.3508
- Surface SNAP-GIPR expression ([6]; replicate 41): 0.4598

B2: R101H (protein)
chain: B1 chain with R80H, Q169R
- Glucagon secretion, ratio G0.5 + GIP / G0.5 ([1]; replicate 1): 1.2225
- Glucagon secretion, ratio G0.5 + GIP / G0.5 ([1]; replicate 2): 1.611
- Glucagon secretion, ratio G0.5 + GIP / G0.5 ([1]; replicate 3): 0.9333
- Glucagon secretion, ratio G0.5 + GIP / G0.5 ([1]; replicate 4): 0.8233
- Insulin secretion, ratio G11 + GIP / G11 ([2]; replicate 1): 2.4659
- Insulin secretion, ratio G11 + GIP / G11 ([2]; replicate 2): 2.05
- Insulin secretion, ratio G11 + GIP / G11 ([2]; replicate 3): 1.407
- Insulin secretion, ratio G11 + GIP / G11 ([2]; replicate 4): 1.963
- Insulin secretion, ratio G11 + GIP / G11 ([3]; replicate 1): 1.571
- Insulin secretion, ratio G11 + GIP / G11 ([3]; replicate 2): 6.006
- Insulin secretion, ratio G11 + GIP / G11 ([3]; replicate 3): 2.0139
- Insulin secretion, ratio G11 + GIP / G11 ([3]; replicate 4): 1.2264
- Insulin secretion, ratio G11 + GIP / G11 ([3]; replicate 5): 0.7288
- INS-1 cAMP (100 nM) [4]: -0.01312
- +GIP internalisation (100 nM) [5]: 0.1025
- GIP-specific internalisation (100 nM) [5]: -0.004871
- Constitutive internalisation (100 nM) [5]: 0.1074
- Internalisation, +GIP [5]: 52.1317
- Internalisation, GIP-only [5]: -2.542
- Internalisation, Vehicle [5]: 54.6733
- AD293 Surface [6, 7]: 0.3592
- AD293 Surface ([6]; paired with cAMP 100 pM): 0.3592
- Surface SNAP-GIPR expression ([6]; replicate 1): 0.3042
- Surface SNAP-GIPR expression ([6]; replicate 2): 0.5275
- Surface SNAP-GIPR expression ([6]; replicate 3): 0.05814
- Surface SNAP-GIPR expression ([6]; replicate 4): 0.1831
- Surface SNAP-GIPR expression ([6]; replicate 5): 0.7685
- Surface SNAP-GIPR expression ([6]; replicate 6): 0.323
- Surface SNAP-GIPR expression ([6]; replicate 7): 0.4744
- Surface SNAP-GIPR expression ([6]; replicate 8): 0.4381
- Surface SNAP-GIPR expression ([6]; replicate 9): 0.4341
- Surface SNAP-GIPR expression ([6]; replicate 10): 0.6442
- Surface SNAP-GIPR expression ([6]; replicate 11): 0.4281
- Surface SNAP-GIPR expression ([6]; replicate 12): 0.4464
- Surface SNAP-GIPR expression ([6]; replicate 13): 0.04565
- Surface SNAP-GIPR expression ([6]; replicate 14): 0.1907
- Surface SNAP-GIPR expression ([6]; replicate 15): 0.4569
- Surface SNAP-GIPR expression ([6]; replicate 16): 0.5164
- Surface SNAP-GIPR expression ([6]; replicate 17): 0.5151
- Surface SNAP-GIPR expression ([6]; replicate 18): 0.4251
- Surface SNAP-GIPR expression ([6]; replicate 19): 0.384
- Surface SNAP-GIPR expression ([6]; replicate 20): 0.5015
- Surface SNAP-GIPR expression ([6]; replicate 21): 0.5316
- Surface SNAP-GIPR expression ([6]; replicate 22): 0.4149
- Surface SNAP-GIPR expression ([6]; replicate 23): 0.4406
- Surface SNAP-GIPR expression ([6]; replicate 24): 0.4166
- Surface SNAP-GIPR expression ([6]; replicate 25): 0.3346
- Surface SNAP-GIPR expression ([6]; replicate 26): 0.3683
- Surface SNAP-GIPR expression ([6]; replicate 27): 0.2116
- Surface SNAP-GIPR expression ([6]; replicate 28): 0.1755
- Surface SNAP-GIPR expression ([6]; replicate 29): 0.2709
- Surface SNAP-GIPR expression ([6]; replicate 30): 0.3405
- Surface SNAP-GIPR expression ([6]; replicate 31): 0.1773
- Surface SNAP-GIPR expression ([6]; replicate 32): 0.3176
- Surface SNAP-GIPR expression ([6]; replicate 33): 0.2814
- Surface SNAP-GIPR expression ([6]; replicate 34): 0.3758
- Surface SNAP-GIPR expression ([6]; replicate 35): 0.422
- Surface SNAP-GIPR expression ([6]; replicate 36): 0.4366
- Surface SNAP-GIPR expression ([6]; replicate 37): 0.2975
- Surface SNAP-GIPR expression ([6]; replicate 38): 0.1954
- Surface SNAP-GIPR expression ([6]; replicate 39): 0.2342
- Surface SNAP-GIPR expression ([6]; replicate 40): 0.2038
- Surface SNAP-GIPR expression ([6]; replicate 41): 0.2137
